Target: tppc9_human TRAPPC9 (UniProt Q96Q05)
Sequence (Q96Q05 whole entry): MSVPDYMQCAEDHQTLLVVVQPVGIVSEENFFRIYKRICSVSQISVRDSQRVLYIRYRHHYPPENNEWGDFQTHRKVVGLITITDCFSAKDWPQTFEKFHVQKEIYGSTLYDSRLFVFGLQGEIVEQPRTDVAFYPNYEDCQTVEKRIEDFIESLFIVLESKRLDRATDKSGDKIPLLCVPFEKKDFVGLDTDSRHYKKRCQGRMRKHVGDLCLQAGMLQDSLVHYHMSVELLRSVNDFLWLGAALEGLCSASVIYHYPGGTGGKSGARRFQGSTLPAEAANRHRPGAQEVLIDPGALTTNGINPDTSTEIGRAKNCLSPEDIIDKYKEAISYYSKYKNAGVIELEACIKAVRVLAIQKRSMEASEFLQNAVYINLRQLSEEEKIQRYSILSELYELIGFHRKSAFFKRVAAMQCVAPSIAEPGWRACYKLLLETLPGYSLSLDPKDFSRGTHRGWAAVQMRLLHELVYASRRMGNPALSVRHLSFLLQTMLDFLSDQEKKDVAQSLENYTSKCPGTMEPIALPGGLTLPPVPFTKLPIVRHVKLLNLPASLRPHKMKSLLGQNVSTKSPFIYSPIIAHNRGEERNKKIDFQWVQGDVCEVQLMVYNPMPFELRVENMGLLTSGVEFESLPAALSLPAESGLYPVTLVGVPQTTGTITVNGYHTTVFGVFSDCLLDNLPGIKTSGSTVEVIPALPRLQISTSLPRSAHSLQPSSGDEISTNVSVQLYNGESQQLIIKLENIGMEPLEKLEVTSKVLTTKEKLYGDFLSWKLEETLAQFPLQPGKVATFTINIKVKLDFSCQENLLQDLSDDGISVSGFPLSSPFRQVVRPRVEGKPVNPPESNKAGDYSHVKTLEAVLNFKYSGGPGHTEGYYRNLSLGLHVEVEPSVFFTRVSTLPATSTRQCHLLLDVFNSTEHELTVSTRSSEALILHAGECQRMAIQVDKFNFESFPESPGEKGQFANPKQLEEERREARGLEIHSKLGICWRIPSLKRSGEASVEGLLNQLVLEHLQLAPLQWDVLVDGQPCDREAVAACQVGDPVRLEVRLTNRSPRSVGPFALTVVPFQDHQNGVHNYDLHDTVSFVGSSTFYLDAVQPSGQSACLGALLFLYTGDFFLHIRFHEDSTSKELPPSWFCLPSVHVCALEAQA

Trafficking protein particle complex subunit 2 (Mus musculus) (from UniProt Q9CQP2) D47Y
effect of a mutation on the interaction: decreasing interaction strength

From IntAct's records for PubMed 21858081
